From the RNAGym collection of RNA variant scans (doi:10.1021/acssynbio.7b00057)

B1: Pistol ribozyme (parent)
chain: GGGUCGUUGUUCCAUAAUCGCGUGGAUAUGGCACGCAAGUUUCUACCGGGCACCGUAAAUGUCCGACUGGAGCCGUUCGGGCGGCUAUAAACAGACCUCAGGCCCGAAGCGUGGCGGCACCUGCCGCCGGUGGUAAAAAAGAUCGGAAGAGCACACGUCU

Variants of: B1
Experiment: aptazyme ON/OFF ratio, guanine; higher = stronger switching; co-transcriptional cleavage with and without guanine

Variant	aptazyme ON/OFF ratio
U8A G9C U10G U11C C12A C13U	1.21
U8A G9C U10G U11A C12A C13A	1.18
U8A G9C U10G U11A C12A C13U	1.21
U8A G9C U10G U11A C12A C13G	1.16
U8A G9C U10C U11A C13G	1.07
U8A G9C U10C U11A C13A	1.16
U8A G9C U10C U11A C13U	1.11
U8A G9C U10G C12U C13G	1.11
U8A G9C U10G C12U C13A	1.21
U8A G9C U10G C12U C13U	1.22
U8A G9C U10A C12A C13G	1.14
U8A G9C U10A C12A C13U	1.19
U8A G9C U10A C12A C13A	1.22
U8A G9C U10G U11A C12U C13U	1.08
U8A G9C U10G U11A C12U C13G	1.11
U8A G9C U10G U11A C12U C13A	1.12
U8A G9C U10C U11C C12U C13U	1.03
U8A G9C U10C U11C C12U C13G	1.01
U8A G9C U10C U11C C12U C13A	1.01
U8A G9C	1.2
U8A G9A U11A C12U C13U	1.29
U8A G9A U11A C12U C13A	1.39
U8A G9A U11A C12U C13G	1.18
U8A G9A U11A C12G	1.31

Variant	aptazyme ON/OFF ratio
U8A G9A U11A C12A	1.08
U8A G9A U11A C12U	1.05
U8A G9A U10G C13G	1.21
U8A G9A U10G C13A	1.29
U8A G9A U10G C13U	1.29
U8A G9C U10A U11A C12U	1.24
U8A G9C U10A U11A C12G	1.37
U8A G9C U10A U11A C12A	1.25
U8A G9A U10G U11A C12A C13U	1.25
U8A G9A U10G U11A C12A C13G	1.24
U8A G9A U10G U11A C12A C13A	1.19
U8A G9A U10G C12A	1.2
U8A G9A U10G C12G	1.16
U8A G9A U10G C12U	1.5
U8A G9C U10C U11A C12A C13U	1.13
U8A G9C U10C U11A C12A C13A	1.04
U8A G9C U10C U11A C12A C13G	1.05
U8A G9C U10A U11G C12G C13A	1.15
U8A G9C U10A U11G C12G C13U	1.21
U8A G9C U10A U11G C12G C13G	1.16
U8A G9C U10G U11G C12A	1.14
U8A G9C U10A U11C C12G C13U	1.07
U8A G9C U10A U11C C12G C13G	1.09
U8A G9C U10A U11C C12G C13A	1.13

Variant	aptazyme ON/OFF ratio
U8A G9C U10C C13U	1.06
U8A G9C U10C C13A	1.01
U8A G9C U10C C13G	1.01
U8A G9A U10G U11G C12G C13U	1.05
U8A G9A U10G U11G C12G C13G	1.07
U8A G9A U10G U11G C12G C13A	1.01
U8A G9A U11A C12G C13A	1.11
U8A G9A U11A C12G C13U	1.04
U8A G9A U11A C12G C13G	1.2
U8A G9C U10C U11G	0.775
U8A G9C U10C U11A	0.878
U8A G9C U10C U11C	1.01
U8A G9C U10G U11C C13G	1.06
U8A G9C U10G U11C C13A	1.11
U8A G9C U10G U11C C13U	1.03
U8A G9C U10A U11A C12U C13U	1.17
U8A G9C U10A U11A C12U C13G	1.19
U8A G9C U10A U11A C12U C13A	1.18
U8A G9C U10A C12U C13A	1.09
U8A G9C U10A C12U C13U	0.997
U8A G9C U10A C12U C13G	1.04
U8A G9C C12G C13U	1.27
U8A G9C C12G C13G	1.14
U8A G9C C12G C13A	1.2

Variant	aptazyme ON/OFF ratio
U8A G9A U11C C12G	1.17
U8A G9A U11C C12A	1.16
U8A G9A U11C C12U	1.09
U8A G9A U10C U11C C12G C13A	1.03
U8A G9A U10C U11C C12G C13G	1.13
U8A G9A U10C U11C C12G C13U	1.07
U8A G9A U10G U11C C12G C13G	1.14
U8A G9A U10G U11C C12G C13A	1.16
U8A G9A U10G U11C C12G C13U	1.18
U8A G9C U10C C12U C13A	1.04
U8A G9C U10C C12U C13G	1.03
U8A G9C U10C C12U C13U	1.03
U8A G9A U11C C12G C13A	1.15
U8A G9A U11C C12G C13G	1.15
U8A G9A U11C C12G C13U	1.22
U8A G9A U10C U11C C13U	1.05
U8A G9A U10C U11C C13G	1.03
U8A G9A U10C U11C C13A	1.03
U8A G9C U10G	1.54
U8A G9C U10C	1.35
U8A G9C U10A	1.38
U8A G9C U10C U11G C12G C13U	1.09
U8A G9C U10C U11G C12G C13A	1.14
U8A G9C U10C U11G C12G C13G	1.12

Variant	aptazyme ON/OFF ratio
U8A G9A U10C U11G C12U C13U	1.22
U8A G9A U10C U11G C12U C13G	1.22
U8A G9A U10C U11G C12U C13A	1.17
U8A G9C U10C C12G C13G	1.03
U8A G9C U10C C12G C13A	1.07
U8A G9C U10C C12G C13U	1.05
U8A G9C U10A C12A	1.27
U8A G9C U10A C12U	1.14
U8A G9C U10A C12G	1.17
U8A G9C U10C U11A C12G C13G	1.12
U8A G9C U10C U11A C12G C13A	1.06
U8A G9C U10C U11A C12G C13U	1.16
U8A G9A U11C C12U C13A	1.23
U8A G9A U11C C12U C13U	1.21
U8A G9A U11C C12U C13G	1.2
U8A G9C U10G C12A C13A	1.19
U8A G9C U10G C12A C13G	1.03
U8A G9C U10G C12A C13U	1.37
U8A G9A U10C U11G C12A C13A	1.19
U8A G9A U10C U11G C12A C13U	1.17
U8A G9A U10C U11G C12A C13G	1.23
U8A G9C U10G C13A	1.38
U8A G9C U10G C13U	1.31
U8A G9C U10G C13G	1.17

Variant	aptazyme ON/OFF ratio
U8A G9A U10G U11G C13U	1.05
U8A G9A U10G U11G C13G	1.12
U8A G9A U10G U11G C13A	1.17
U8A G9C C12U C13A	1.21
U8A G9C C12U C13U	1.2
U8A G9C C12U C13G	1.15
U8A G9C C12A	1.37
U8A G9C C12U	1.3
U8A G9C C12G	1.22
U8A G9C U10A C12G C13A	1.19
U8A G9C U10A C12G C13U	1.14
U8A G9C U10A C12G C13G	1.11
U8A G9C U10G U11G C12A C13A	1.13
U8A G9A U10G U11G C12A C13G	1.27
U8A G9A U10G U11G C12A C13U	1.3
U8A G9A U10G U11G C12A C13A	1.12
U8A G9C U10A U11C C12U C13G	1.15
U8A G9C U10A U11C C12U C13A	1.07
U8A G9C U10A U11C C12U C13U	1.09
U8A G9C U10G U11A C12A	1.31
U8A G9C U10G U11A C12U	1.06
U8A G9C U10G U11A C12G	1.28
U8A G9C U10A U11A C12G C13G	1.23
U8A G9C U10A U11A C12G C13U	1.3

Variant	aptazyme ON/OFF ratio
U8A G9C U10A U11A C12G C13A	1.14
U8A G9A U10G	1.46
U8A G9A U10C U11G C12A	1.03
U8A G9A U10C U11G C12G	1.38
U8A G9A U10C U11G C12U	1.26
U8A G9A U11G	1.44
U8A G9A U11C	1.05
U8A G9A U11A	1.39
U8A G9C U10C U11C C12G C13U	1.04
U8A G9C U10C U11C C12G C13A	1.01
U8A G9C U10C U11C C12G C13G	1.05
U8A G9A U10G U11A C12U C13U	0.98
U8A G9A U10G U11A C12U C13G	1.07
U8A G9A U10G U11A C12U C13A	1.12
U8A G9C U10A U11G C12A C13U	1.14
U8A G9C U10A U11G C12A C13G	1.26
U8A G9C U10A U11G C12A C13A	1.14
U8A G9A U10G U11C C12U C13A	1.21
U8A G9A U10G U11C C12U C13G	1.16
U8A G9A U10G U11C C12U C13U	1.15
U8A G9A U10G U11C C13A	1.07
U8A G9A U10G U11C C13U	1.04
U8A G9A U10G U11C C13G	1.05
